# Laboratory results reported in PMC10853763.
# Test system: TifA RB69 (phage RB69)
# Assay: fluorescence polarization
# Settings: FP: 50 mM Tris-HCl pH 7.5, 150 mM NaCl, 1 mM DTT, 5% glycerol, 0.1 mg/ml BSA, 5 nM nucleic acid, 30 min at 37 C, SEC: 20 mM Tris-HCl pH 8.5, 50 mM NaCl
row,Substance,Kd [nM]
1,artJ RNA 30 nt,850
2,artJ RNA 45 nt,360
3,artJ RNA 15 nt,2300
